In the Immune Epitope Database (IEDB):
Blank lines part the entries; values can stand above or below the sequence they belong to.

Experiments:
HLA-B*08:01 = experiment: IEDB peptide-MHC binding, purified MHC/competitive/radioactivity; filed as Kd, often an IC50 or EC50 that approximates it; ≥ and ≤ were set here for values at or beyond the usual limits of such assays
HLA-A*23:01 = experiment: as above
HLA-A*24:02 = experiment: as above
HLA-A*29:02 = experiment: as above
HLA-A*01:01 [1] = experiment: as above
HLA-A*30:02 = experiment: as above
HLA-A*26:01 = experiment: as above
HLA-A*69:01 = experiment: IEDB peptide-MHC binding, purified MHC/direct/fluorescence; filed as Kd, often an IC50 or EC50 that approximates it; ≥ and ≤ were set here for values at or beyond the usual limits of such assays; conditions: source organism: Mycobacterium tuberculosis
HLA-A*02:01 = experiment: IEDB peptide-MHC binding, purified MHC/competitive/fluorescence; filed as Kd, often an IC50 or EC50 that approximates it; ≥ and ≤ were set here for values at or beyond the usual limits of such assays
HLA-B*15:01 = experiment: IEDB peptide-MHC binding, purified MHC/direct/fluorescence; filed as Kd, often an IC50 or EC50 that approximates it; ≥ and ≤ were set here for values at or beyond the usual limits of such assays
HLA-A*01:01 [2] = experiment: as above; conditions: source organism: SARS-CoV1
HLA-A*11:01 = experiment: as above; conditions: source organism: Haemophilus influenzae
HLA-A*31:01 = experiment: as above; conditions: source organism: Haemophilus influenzae
HLA-A*03:01 = experiment: as above; conditions: source organism: Haemophilus influenzae
HLA-B*58:01 = experiment: as above; conditions: source organism: Haemophilus influenzae
[3] = source organism: Dengue virus 1 Brazil/97-11/1997
[4] = source organism: Dengue virus 3 Martinique/1243/1999
[5] = source organism: SARS coronavirus Tor2
[6] = source organism: Vaccinia virus WR
[7] = source organism: Mammarenavirus brazilense
[8] = source organism: Mammarenavirus machupoense
[9] = source organism: Dengue virus 2 Jamaica/1409/1983
[10] = source organism: Mammarenavirus lassaense
[11] = source organism: Lassa virus Josiah

Sequence: LAGAGLAFSL
Kd (HLA-B*08:01; [3]): 2.62 µM

Sequence: LAIPPTAGVL
Kd (HLA-B*08:01; [4]): 11.9 µM

Sequence: LLEIKDKEQY
Kd (HLA-A*23:01; [5]): ≥ 70 µM | Kd (HLA-A*24:02; [5]): 10.9 µM | Kd (HLA-A*29:02; [5]): 3.53 µM | Kd (HLA-A*01:01 [1]; [5]): 0.936 µM | Kd (HLA-A*30:02; [5]): 1.27 µM | Kd (HLA-A*26:01; [5]): ≥ 82.8 µM

Sequence: LLHEVGITV
Kd (HLA-A*69:01): 1.92 µM

Sequence: LMKERISSE
Kd (HLA-B*08:01; [6]): 0.0819 µM

Sequence: LTQKVVIFIL
Kd (HLA-B*08:01; [4]): 3.1 µM

Sequence: LWMAEIPLQW
Kd (HLA-A*23:01; [4]): 0.0137 µM | Kd (HLA-A*24:02; [4]): 0.0386 µM

Sequence: LYALITEQF
Kd (HLA-A*23:01; [7]): 0.00279 µM | Kd (HLA-A*24:02; [7]): 0.0168 µM | Kd (HLA-A*29:02; [7]): 0.731 µM

Sequence: LYIAENGEL
Kd (HLA-A*23:01; [7]): 0.247 µM | Kd (HLA-A*24:02; [7]): 1.68 µM | Kd (HLA-A*29:02; [7]): ≥ 20.7 µM

Sequence: MFGTRKNSF
Kd (HLA-B*08:01; [6]): 0.00204 µM

Sequence: MTSERTLAV
Kd (HLA-A*02:01; source organism: Yersinia pestis Nepal516): 0.0577 µM

Sequence: NLIIHTAAL
Kd (HLA-B*08:01; [6]): 0.00155 µM

Sequence: NQDLNGNWY
Kd (HLA-A*23:01; [5]): ≥ 77.8 µM | Kd (HLA-A*24:02; [5]): ≥ 77.6 µM | Kd (HLA-A*29:02; [5]): 0.854 µM | Kd (HLA-A*30:02; [5]): 2.71 µM | Kd (HLA-A*26:01; [5]): ≥ 35 µM | Kd (HLA-B*15:01; source organism: SARS-CoV1): 15.3 µM | Kd (HLA-A*01:01 [2]): 0.282 µM

Kd (HLA-A*24:02; source organism: Homo sapiens): 0.363 µM
Sequence: NYPLWSQSY

Sequence: RAEVSLHEV
Kd (HLA-A*23:01; [8]): ≥ 77.7 µM | Kd (HLA-A*24:02; [8]): ≥ 77.5 µM | Kd (HLA-A*29:02; [8]): ≥ 78.9 µM | Kd (HLA-A*01:01 [1]; [8]): ≥ 66.2 µM | Kd (HLA-A*30:02; [8]): ≥ 41.2 µM | Kd (HLA-A*26:01; [8]): ≥ 77.9 µM

Sequence: RFLYIIKLVF
Kd (HLA-A*23:01; [5]): 3.21e-05 µM | Kd (HLA-A*24:02; [5]): 0.0133 µM | Kd (HLA-A*29:02; [5]): 1.05 µM | Kd (HLA-A*01:01 [1]; [5]): 1.06 µM | Kd (HLA-A*30:02; [5]): 1.19 µM | Kd (HLA-A*26:01; [5]): 16.6 µM

Sequence: RKKARNTPF
Kd (HLA-B*08:01; source organism: Dengue virus 2 Peru/IQT2913/1996): 0.0827 µM

Kd (HLA-A*11:01): 5.27 µM | Kd (HLA-B*15:01; source organism: Haemophilus influenzae): 0.296 µM | Kd (HLA-A*31:01): 0.905 µM | Kd (HLA-A*03:01): 1.06 µM | Kd (HLA-B*58:01): 0.19 µM
Sequence: RLFFIDWEY

Sequence: RLPNLFHIL
Kd (HLA-B*08:01; [6]): 0.0685 µM

Sequence: RPKIKTNDI
Kd (HLA-B*08:01; [6]): 0.00211 µM

Sequence: RREEEEAGVL
Kd (HLA-B*08:01; [9]): 2.16 µM

Sequence: RVMVSPLAV
Kd (HLA-A*02:01; source organism: Influenza A virus H3N2): 0.0009 µM

Sequence: SIKSKSRRL
Kd (HLA-B*08:01; [6]): 0.0298 µM

Sequence: SLNITTLRAV
Kd (HLA-A*23:01; [10]): ≥ 70 µM | Kd (HLA-A*24:02; [10]): ≥ 70.3 µM | Kd (HLA-A*29:02; [10]): ≥ 71.4 µM | Kd (HLA-A*01:01 [1]; [10]): ≥ 70.4 µM | Kd (HLA-A*30:02; [10]): 1.7 µM | Kd (HLA-A*26:01; [10]): ≥ 69.7 µM

Sequence: SMTKKFKTI
Kd (HLA-B*08:01; [6]): 0.151 µM

Sequence: SNRAIFVPI
Kd (HLA-B*08:01; [6]): 0.127 µM

Sequence: SQMERFNCS
Kd (HLA-B*08:01; source organism: Vaccinia virus Copenhagen): 0.0388 µM

Sequence: TKQTGSASSM
Kd (HLA-B*08:01; [9]): 1.44 µM

Sequence: TPMMRHTIE
Kd (HLA-B*08:01; [3]): 0.00723 µM

Sequence: TSSGDATTAY
Kd (HLA-A*23:01; [5]): ≥ 70 µM | Kd (HLA-A*24:02; [5]): ≥ 70.3 µM | Kd (HLA-A*29:02; [5]): 0.0988 µM | Kd (HLA-A*01:01 [1]; [5]): 0.0638 µM | Kd (HLA-A*30:02; [5]): 0.606 µM | Kd (HLA-A*26:01; [5]): 0.646 µM

Sequence: TWSIHAHHQW
Kd (HLA-A*23:01; [3]): 0.95 µM | Kd (HLA-A*24:02; [3]): 1.08 µM

Sequence: TYHPNCINCL
Kd (HLA-A*23:01; [5]): 1.15 µM | Kd (HLA-A*24:02; [5]): 0.663 µM | Kd (HLA-A*29:02; [5]): 5.58 µM | Kd (HLA-A*01:01 [1]; [5]): ≥ 70.4 µM | Kd (HLA-A*30:02; [5]): ≥ 37.2 µM | Kd (HLA-A*26:01; [5]): ≥ 69.7 µM

Sequence: VDINLIPLI
Kd (HLA-A*23:01; [10]): 1.61 µM | Kd (HLA-A*24:02; [10]): 2.95 µM | Kd (HLA-A*29:02; [10]): ≥ 78.9 µM | Kd (HLA-A*01:01 [1]; [10]): 19.5 µM | Kd (HLA-A*30:02; [10]): ≥ 76.9 µM | Kd (HLA-A*26:01; [10]): ≥ 77.9 µM

Sequence: VTDTNKFAHY
Kd (HLA-A*23:01; source organism: Variola virus): ≥ 50.2 µM | Kd (HLA-A*24:02; source organism: Variola virus): ≥ 70.3 µM | Kd (HLA-A*29:02; source organism: Variola virus): ≥ 25.5 µM | Kd (HLA-A*01:01 [1]; source organism: Variola virus): 0.0136 µM | Kd (HLA-A*30:02; source organism: Variola virus): 1.29 µM | Kd (HLA-A*26:01; source organism: Variola virus): ≥ 69.7 µM

Sequence: VYALCTLLHL
Kd (HLA-A*23:01; [5]): 0.0398 µM | Kd (HLA-A*24:02; [5]): 0.0767 µM | Kd (HLA-A*29:02; [5]): 5.57 µM | Kd (HLA-A*01:01 [1]; [5]): 19.9 µM | Kd (HLA-A*30:02; [5]): ≥ 100 µM | Kd (HLA-A*26:01; [5]): 14 µM

Sequence: VYKEGTFHTM
Kd (HLA-A*24:02; [9]): 0.0147 µM

Sequence: YCNYSKYWY
Kd (HLA-A*23:01; [11]): 13.6 µM | Kd (HLA-A*24:02; [11]): ≥ 44.4 µM | Kd (HLA-A*29:02; [11]): 0.713 µM | Kd (HLA-A*01:01 [1]; [11]): 15.8 µM | Kd (HLA-A*30:02; [11]): 0.668 µM | Kd (HLA-A*26:01; [11]): ≥ 77.9 µM

Sequence: YIESKRGVY
Kd (HLA-A*23:01; [5]): ≥ 77.8 µM | Kd (HLA-A*24:02; [5]): ≥ 77.6 µM | Kd (HLA-A*29:02; [5]): 0.0203 µM | Kd (HLA-A*01:01 [1]; [5]): 0.145 µM | Kd (HLA-A*30:02; [5]): 0.047 µM | Kd (HLA-A*26:01; [5]): 0.735 µM

Sequence: YRIAKFLFM
Kd (HLA-B*08:01; [6]): 0.0168 µM

Sequence: YYSLLMPIL
Kd (HLA-A*23:01; [5]): ≥ 43.9 µM | Kd (HLA-A*24:02; [5]): ≥ 77.6 µM | Kd (HLA-A*29:02; [5]): ≥ 75 µM | Kd (HLA-A*01:01 [1]; [5]): ≥ 78.1 µM | Kd (HLA-A*30:02; [5]): ≥ 81.1 µM | Kd (HLA-A*26:01; [5]): 13.7 µM
